Measured values from patent US9616120B2, “Monoclonal antibodies directed to CD20” (VET THERAPEUTICS, INC., priority 2010, dated 2017).

T1: recombinant canine CD20 expressed in HEK cells (Canis lupus familiaris, UniProt Q3C2E2, A201T/C77Y/G273E/L198V)
T1 construct: expressed in transfected cells; host or cells: HEK cells
T1 sequence (Q3C2E2 1-297 C77Y/L198V/A201T/G273E): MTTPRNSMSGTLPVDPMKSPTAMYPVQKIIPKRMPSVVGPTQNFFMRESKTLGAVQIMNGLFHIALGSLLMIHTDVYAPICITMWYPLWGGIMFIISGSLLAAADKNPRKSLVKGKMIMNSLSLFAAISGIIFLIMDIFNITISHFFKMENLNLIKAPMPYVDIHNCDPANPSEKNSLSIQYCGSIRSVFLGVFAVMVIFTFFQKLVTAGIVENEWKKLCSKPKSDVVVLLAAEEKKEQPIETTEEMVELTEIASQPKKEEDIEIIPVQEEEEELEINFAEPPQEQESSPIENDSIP

T2: recombinant canine CD20 (Canis lupus familiaris, UniProt Q3C2E2, A201T/C77Y/G273E/L198V)
T2 construct: are transfected with an expression vector encoding the full-length canine CD20 protein; expressed in transfected cells; host or cells: CHO cells (CHO-DG44)
T2 sequence (Q3C2E2 1-297 C77Y/L198V/A201T/G273E): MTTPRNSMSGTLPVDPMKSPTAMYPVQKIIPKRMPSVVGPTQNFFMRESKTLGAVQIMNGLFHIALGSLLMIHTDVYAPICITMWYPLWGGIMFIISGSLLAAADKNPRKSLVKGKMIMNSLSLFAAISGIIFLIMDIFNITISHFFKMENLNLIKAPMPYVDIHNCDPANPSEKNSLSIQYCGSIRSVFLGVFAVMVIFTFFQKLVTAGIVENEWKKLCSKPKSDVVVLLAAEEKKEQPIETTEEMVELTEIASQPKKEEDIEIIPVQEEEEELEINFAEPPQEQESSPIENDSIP


Legend:
[1] = tested on: canine B cells; conditions: Veterinary Journal, 2006, vol 171, 556; cited from earlier work
[2] = molecular target: T1, recombinant canine CD20 expressed in HEK cells; assay: FACS binding to cells expressing recombinant canine CD20; conditions: for mean fluorescence, Canine CD20: antibody 2.5 μg/mL
Description: (§1) The binding of the antibody variants of the present invention raised to canine CD20 can be assessed by FACS analysis for their binding to feline CD20 according to standard immunological techniques (see Veterinary Immunology and Immunopathology 2005, 106:179-196; Brousseau et al., Manual of Immunology Methods, CRC Press, 1998). In the present example, the antibody variants (2.5 μg/mL) are incubated with mammalian cells expressing the recombinant feline CD20 or canine CD20 or control cells. The amount of bound antibody is assessed by detection with a fluorescent-labeled reporter antibody reagent. Several controls are utilized to determine the background fluorescence: (i) CD20 expressing cells are incubated with the conjugated secondary antibody with an isotype antibody, and (ii) Control cells are incubated with the anti-CD20 antibodies.

[3] = tested on: feline CD20 expressed in mammalian cells; assay: FACS binding to cells expressing recombinant feline CD20; conditions: for mean fluorescence, Feline CD20: antibody 2.5 μg/mL
Chain of feline CD20 expressed in mammalian cells (as listed by the source): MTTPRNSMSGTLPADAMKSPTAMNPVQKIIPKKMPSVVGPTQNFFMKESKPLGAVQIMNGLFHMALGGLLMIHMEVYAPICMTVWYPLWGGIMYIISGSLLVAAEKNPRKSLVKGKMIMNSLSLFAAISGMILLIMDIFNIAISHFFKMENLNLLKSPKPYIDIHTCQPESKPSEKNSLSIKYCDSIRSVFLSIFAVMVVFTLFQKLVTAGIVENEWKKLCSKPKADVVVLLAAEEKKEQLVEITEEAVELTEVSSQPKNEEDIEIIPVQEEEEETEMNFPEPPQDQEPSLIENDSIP
Description: as §1

[4] = tested on: Control Cells; assay: FACS binding to control cells; conditions: antibody 2.5 μg/mL
Description: In the present example, the antibody variants (2.5 μg/mL) are incubated with mammalian cells expressing the recombinant feline CD20 or canine CD20 or control cells. The amount of bound antibody is assessed by detection with a fluorescent-labeled reporter antibody reagent. Several controls are utilized to determine the background fluorescence: (i) CD20 expressing cells are incubated with the conjugated secondary antibody with an isotype antibody, and (ii) Control cells are incubated with the anti-CD20 antibodies.

[5] = molecular target: T2, recombinant canine CD20; assay: Competition experiments (epitope mapping) on CHO cells expressing recombinant canine CD20; format: binding; conditions: for percentage of inhibition (PI), labeled antibody CD20-1 / percentage of inhibition (PI), labeled antibody CD20-2 / percentage of inhibition (PI), labeled antibody CD20-5: unlabelled competitor 25 μg/mL; for percentage of inhibition (PI), labeled antibody CD20-1: biotin-labeled CD20-1 2 μg/mL; for percentage of inhibition (PI), labeled antibody CD20-2: biotin-labeled CD20-2 2 μg/mL; for percentage of inhibition (PI), labeled antibody CD20-5: biotin-labeled CD20-5 2 μg/mL
Description: Competition experiments are performed using standard techniques. Briefly, biotinylated recombinant anti-canine CD20 antibodies are titrated on CHO cells expressing recombinant canine CD20. Cells are first incubated with an excess of unlabelled recombinant anti-canine CD20 antibody (25 μg/mL). Thereafter, cells are incubated with a biotin-labeled antibody at 2 μg/mL. After washing, cells are incubated with streptavidin- phycoerythrin and fluorescence is analyzed by flow cytometry. An irrelevant antibody is used as negative control for inhibition. Results are expressed as a ratio between fluorescence intensity of the cells pre-incubated with the unlabelled antibody and the fluorescence intensity obtained for each biotinylated antibody alone. The percentage of inhibition (PI) is calculated by the following formula: PI=[1−(Experimental-Background)/Biotinylated antibody alone−Background)]×100%.

[6] = Half-life of recombinant anti-canine CD20 antibody in beagle dogs (plasma ELISA); format: in vivo
Description: The half-life of the recombinant anti-canine CD20 antibody are assessed. In this example, the half-life of antibody CD20-2 (VET305) is assessed by dosing beagle dogs intravenously. Blood is collected for analysis of CD20-2 in plasma samples harvested as whole blood treated with Ethylenediaminetetraacetic acid (EDTA) as the anticoagulant. An enzyme linked immunosorbant assay (ELISA) method is utilized to determine the plasma antibody concentrations. In this assay, a 96-well plate is coated with a rabbit polyclonal antibody raised to the variable domain of the antibody CD20-2. The antibody CD20-2 in standards or in samples is captured by the polyclonal antibody and is detected by an enzyme conjugated anti-dog secondary antibody. A non-linear regression fit of the standards is used to determine the recombinant antibody concentrations in plasma.

[7] = tested on: B lymphocyte cell population; assay: Depletion of B cells in vivo (CD21 flow cytometry); set-up: species or system beagle dogs; conditions: three consecutive doses 2.4 mg/kg to 5.0 mg/kg
Description: Three beagle dogs receive three consecutive dosages of the antibody CD20-2 (VET305) ranging from […] to 5.0 mg/kg every 5 days. Blood samples drawn at several time points are centrifuged at 2000 RPM for 5 min. Plasma is removed for assay of the antibody levels. The pellet containing peripheral blood leukocytes and red blood cells is resuspended in a plasma equivalent volume of phosphate saline solution (Dulbecco's Phosphate-Buffered Saline, Mediatech, Cat No. 21-030-CM) for quantitation of lymphocyte populations by flow cytometry. A 0.1 mL volume of the cell preparation is distributed into micro-centrifuge tubes. Labeled monoclonal antibody with specificity for the canine lymphocyte surface marker CD21 is added to the vial to identify the B lymphocyte cell population. An additional sample is included with no reagents for determination of autofluorescence. Cells are incubated with the fluorescent antibody for 30 min. Red blood cell were then lyzed for 15 min using a lysis buffer (Red Blood Cell Lysis Buffer, Biolegend,Cat No. 420301) and then washed prior to analysis on a Becton Dickinson FACS instrument.

[8] = Tolerability of weekly dosing; format: in vivo; conditions: weekly dose over 4 weeks
[9] = multiple doses 2.0 to 5.0 mg/kg

| Molecule | reactivity with canine B cells [1] | binding to recombinant canine CD20 (in words) [2] | mean fluorescence, Canine CD20 [2] [mean fluorescence units] | mean fluorescence, Feline CD20 [3] [mean fluorescence units] | binding to feline CD20 (in words) ([3]; mammalian cells) | mean fluorescence, Control Cells [4] [mean fluorescence units] | percentage of inhibition (PI), labeled antibody CD20-1 [5] [%] | percentage of inhibition (PI), labeled antibody CD20-2 [5] [%] | percentage of inhibition (PI), labeled antibody CD20-5 [5] [%] | change of half-life values ([6]; consecutive administration) | elimination half life [6, 9] | plasma antibody concentrations (in words) [6, 9] | volume of distribution [6, 9] | plasma antibody concentrations (in words) ([6]; single dose 2.4 mg/kg) | duration of depletion after the last dose [7] | B lymphocyte cell percentage after treatment ([7]; every 5 days) | adverse effects on clinical and behavioral observations or body weights [8] | tolerability [8] | epitope of canine CD20 (in words) ([5]; conclusion from Table 7) |
| --- | --- | --- | --- | --- | --- | --- | --- | --- | --- | --- | --- | --- | --- | --- | --- | --- | --- | --- | --- |
| Rituximab: a monoclonal antibody to the human CD20 antigen | does not react with canine B cells |  |  |  |  |  |  |  |  |  |  |  |  |  |  |  |  |  |  |
| CD20-2: anti-canine CD20 antibody; full length HC SEQ ID NO. 38, LC SEQ ID NO. 39 (antibody, canis familiaris/mus musculus, anti-canine CD20 antibody; 39) heavy: QVQLQQSRAELVRPGASVTLSCKPSGYTFTDYEVHWVKQTPVHGLEWIGAIDPETGGTADNQKFKGKAILTADKSSSTAYMELRSLTSEDSAVYYCTNFVDVWGTGTTVTVSSASTTAPSVFPLAPSCGSQSGSTVALACLVSGYFPEPVTVSWNSGSLTSGVHTFPSVLQSSGLYSLSSMVTVPSSRWPSETFTCNVAHPASKTKVDKPVPKRENGRVPRPPDCPKCPAPEMLGGPSVFIFPPKPKDTLLIARTPEVTCVVVDLDPEDPEVQISWFVDGKQMQTAKTQPREEQFNGTYRVVSVLPIGHQDWLKGKQFTCKVNNKALPSPIERTISKARGQAHQPSVYVLPPSREELSKNTVSLTCLIKDFFPPDIDVEWQSNGQQEPESKYRTTPPQLDEDGSYFLYSKLSVDKSRWQRGDTFICAVMHEALHNHYTQKSLSHSPGK light: DVVMSQSPSSLAVSVGEKVTMSCKSSQSLLYSGNQKNYLAWYQQKPGQSPRLLIYWASTRESGVPDRFTGSGSGTDFTLTISSVKAEDLAVFYCQQYYNYPLTFGGGTHLTVLGQPKASPSVTLFPPSSEELGANKATLVCLISDFYPSGVTVAWKADGSPITQGVETTKPSKQSNNKYAASSYLSLTPDKWKSHSSFSCLVTHEGSTVEKKVAPAECS |  | effective binding | 2340 | 2209 | bind feline CD20 | 49 | 0.90 | 124.33 | 3.69 | increase after consecutive administration | one week | increases overtime and persists at significant levels | approximating plasma volume | high plasma antibody concentrations are achieved in all animals | at least 10 days | decrease in-B lymphocyte cell percentage | no adverse effects | well tolerated locally and systemically |  |
| CD20-6: anti-canine CD20 antibody; full length HC SEQ ID NO. 42, LC SEQ ID NO. 43 (antibody, canis familiaris/mus musculus, anti-canine CD20 antibody; 43) heavy: EIQLQQSGAELVRPGASVTLSCKASGYTFTDYEMHWVKQTPVHGLEWIGGIDPETGGTAYNQKFKGKAILTADKSSSTVYMELRSLTSEDSAVYYCTRDYGTSGYWGQGTLVTVSSASTTAPSVFPLAPSCGSQSGSTVALACLVSGYFPEPVTVSWNSGSLTSGVHTFPSVLQSSGLYSLSSMVTVPSSRWPSETFTCNVAHPASKTKVDKPVPKRENGRVPRPPDCPKCPAPEMLGGPSVFIFPPKPKDTLLIARTPEVTCVVVDLDPEDPEVQISWFVDGKQMQTAKTQPREEQFNGTYRVVSVLPIGHQDWLKGKQFTCKVNNKALPSPIERTISKARGQAHQPSVYVLPPSREELSKNTVSLTCLIKDFFPPDIDVEWQSNGQQEPESKYRTTPPQLDEDGSYFLYSKLSVDKSRWQRGDTFICAVMHEALHNHYTQKSLSHSPGK light: DVVVTQTPLSLPVSFGDQVSISCRSSQSLANSYGNTYLSWYLHKPGQSPQLLIYGISNRFSGVPDRFSGSGSGTDFTLKISRVEAEDLGVYFCSQSTHVPWTFGGGTHLTVLGQPKASPSVTLFPPSSEELGANKATLVCLISDFYPSGVTVAWKADGSPITQGVETTKPSKQSNNKYAASSYLSLTPDKWKSHSSFSCLVTHEGSTVEKKVAPAECS |  | effective binding | 2107 | 60 |  | 4 | 6.03 | 1.41 | 5.99 |  |  |  |  |  |  |  |  |  | recognize different epitopes |
